For experiment [1], the target named is T1, cMet-Fc fusion protein (extracellular domain of the cMet receptor expressed as an Fc-fusion protein) (human, UniProt P08581 25-932).
T1 construct: extracellular domain; also called soluble cMet-Fc-fusion protein; soluble cMet receptor; not shown: Fc part
Nature of the experiment: phage ELISA on cMet-Fc, competitor HGF 500 ng/mL. An outline of the steps: (§1)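 Plates coated with 0.5 μg/mL cMet-Fc, with TRAIL-Fc as background, then blocked with 3% BSA. Bound phage detected with HRP anti-M13 antibody.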

The target in experiment [2] is T2, human cMet expressed on 3T3 cells (human, UniProt P08581 25-1390).
T2 construct: whole, on cells; cells fixed with glutaraldehyde; also called cell surface-expressed human cMet; 3T3 cells that over-express human cMet
The experiment in a line: whole cell phage ELISA, 3T3 human cMet vs 3T3. An outline of the steps:
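3T3 cells over-expressing human cMet, compared against parental 3T3, seeded at 10⁵ per well and fixed with 0.1% glutaraldehyde for 12 min at 37 C. Blocked peptide-displaying phage bound for 1 h at room temperature. After PBST washes, bound phage was detected with HRP-conjugated anti-M13 antibody.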

In experiment [3] the target is T1, cMet-Fc fusion protein (extracellular …). Nature of the experiment: phage ELISA, cMet-Fc vs TRAIL-Fc. An outline of the steps: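 Plates coated overnight at 4 C with 0.5 μg/mL cMet-Fc, or TRAIL-Fc as background, were blocked with 3% BSA in PBST. Peptide-displaying phage were bound 2 h at room temperature. Bound phage were detected with HRP-conjugated anti-M13 antibody.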

The target is the same in experiment [4]. Nature of the experiment: phage ELISA on cMet-Fc, competitor HGF 100 ng/mL. Summed up:
as §1
(In general: In an ELISA, binding on a coated surface is turned into a signal by an enzyme label.)

T1 sequence (P08581 25-932): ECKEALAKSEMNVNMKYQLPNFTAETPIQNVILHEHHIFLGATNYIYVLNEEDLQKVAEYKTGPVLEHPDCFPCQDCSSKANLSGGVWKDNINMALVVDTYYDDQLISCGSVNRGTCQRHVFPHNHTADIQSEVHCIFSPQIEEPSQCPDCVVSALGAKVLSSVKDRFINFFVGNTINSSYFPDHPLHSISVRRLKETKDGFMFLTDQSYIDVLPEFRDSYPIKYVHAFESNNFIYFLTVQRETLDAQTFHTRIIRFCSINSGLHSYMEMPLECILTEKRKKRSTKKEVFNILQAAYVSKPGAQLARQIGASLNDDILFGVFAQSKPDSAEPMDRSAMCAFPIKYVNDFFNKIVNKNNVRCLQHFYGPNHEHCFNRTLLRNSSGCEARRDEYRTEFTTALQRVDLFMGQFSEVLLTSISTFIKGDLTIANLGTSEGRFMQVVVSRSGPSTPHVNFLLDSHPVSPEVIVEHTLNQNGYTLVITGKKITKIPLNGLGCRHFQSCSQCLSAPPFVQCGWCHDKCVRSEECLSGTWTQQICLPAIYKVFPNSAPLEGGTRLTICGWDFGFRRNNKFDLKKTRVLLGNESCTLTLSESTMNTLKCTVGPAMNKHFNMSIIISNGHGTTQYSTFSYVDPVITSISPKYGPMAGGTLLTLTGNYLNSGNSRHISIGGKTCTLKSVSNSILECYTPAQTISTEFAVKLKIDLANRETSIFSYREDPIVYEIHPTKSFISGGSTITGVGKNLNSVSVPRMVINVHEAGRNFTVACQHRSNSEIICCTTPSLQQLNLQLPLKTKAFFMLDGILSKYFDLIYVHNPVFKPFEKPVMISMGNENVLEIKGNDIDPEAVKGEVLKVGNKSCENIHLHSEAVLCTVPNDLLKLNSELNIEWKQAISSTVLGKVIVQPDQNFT
T2 sequence (P08581 25-1390): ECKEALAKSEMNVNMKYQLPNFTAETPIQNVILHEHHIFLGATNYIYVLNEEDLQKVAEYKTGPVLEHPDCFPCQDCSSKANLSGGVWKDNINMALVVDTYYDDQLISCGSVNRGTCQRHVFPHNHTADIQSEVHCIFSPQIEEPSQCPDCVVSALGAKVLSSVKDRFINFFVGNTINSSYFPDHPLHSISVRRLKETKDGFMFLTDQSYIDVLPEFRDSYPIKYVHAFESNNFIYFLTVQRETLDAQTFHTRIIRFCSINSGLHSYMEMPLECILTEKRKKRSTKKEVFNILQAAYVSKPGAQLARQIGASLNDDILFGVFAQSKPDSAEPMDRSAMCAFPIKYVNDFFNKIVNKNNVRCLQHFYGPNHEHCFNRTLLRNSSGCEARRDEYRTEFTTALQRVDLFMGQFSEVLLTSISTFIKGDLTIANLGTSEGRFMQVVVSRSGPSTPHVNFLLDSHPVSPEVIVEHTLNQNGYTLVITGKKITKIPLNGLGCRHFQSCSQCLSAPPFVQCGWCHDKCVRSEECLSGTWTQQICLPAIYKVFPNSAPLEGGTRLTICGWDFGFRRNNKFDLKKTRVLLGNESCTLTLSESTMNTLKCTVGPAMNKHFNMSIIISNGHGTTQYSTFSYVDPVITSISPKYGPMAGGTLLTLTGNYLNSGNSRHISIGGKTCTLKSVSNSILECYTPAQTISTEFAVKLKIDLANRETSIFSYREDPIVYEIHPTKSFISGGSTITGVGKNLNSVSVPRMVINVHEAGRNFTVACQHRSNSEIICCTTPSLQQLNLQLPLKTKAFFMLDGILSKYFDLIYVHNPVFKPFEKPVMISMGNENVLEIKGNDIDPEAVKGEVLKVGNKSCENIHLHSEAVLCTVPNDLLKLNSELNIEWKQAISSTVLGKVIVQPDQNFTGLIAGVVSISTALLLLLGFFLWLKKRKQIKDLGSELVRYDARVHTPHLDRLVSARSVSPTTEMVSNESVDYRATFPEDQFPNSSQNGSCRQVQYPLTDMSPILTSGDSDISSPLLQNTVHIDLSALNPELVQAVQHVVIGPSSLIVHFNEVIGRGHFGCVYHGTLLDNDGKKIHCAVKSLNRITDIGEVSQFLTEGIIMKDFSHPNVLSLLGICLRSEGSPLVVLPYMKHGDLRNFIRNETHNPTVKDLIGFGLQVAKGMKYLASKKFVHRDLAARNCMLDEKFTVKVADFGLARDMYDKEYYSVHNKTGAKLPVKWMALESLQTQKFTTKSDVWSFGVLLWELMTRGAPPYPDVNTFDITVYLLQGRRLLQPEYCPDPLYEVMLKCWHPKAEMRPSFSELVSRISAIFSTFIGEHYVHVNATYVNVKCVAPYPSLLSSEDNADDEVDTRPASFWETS

As to AQMYQTPDGVIGKFVDWMFN [119-F06 peptide-displaying phage (SEQ ID NO: 455)], the results for the “% of binding in the absence of HGF” value in experiment [1] and in experiment [4] were 27% and 4%, respectively. For the same molecule, the “WC ELISA (fold over background)” value in experiment [2] was 1.33 fold. Also, in experiment [3], the “Protein ELISA (fold over background)” value was 8 fold.

For the molecule AQFDRYWHFAWMDVSFSSGQSG [92-B05 peptide-displaying phage (SEQ ID NO: 465)], the “% of binding in the absence of HGF” value in experiment [1] and in experiment [4] was 94% each time. The “WC ELISA (fold over background)” value in experiment [2] came to 1.2 fold. Further, the “Protein ELISA (fold over background)” value in experiment [3] was 4.3 fold.

Regarding AQVGSPMLPSWFSFEANWSS [95-A11 peptide-displaying phage (SEQ ID NO: 456)], the “% of binding in the absence of HGF” value worked out at 108% in experiment [1] and 109% in experiment [4]. In experiment [2], the “WC ELISA (fold over background)” value stood at 1.3 fold. In experiment [3], the “Protein ELISA (fold over background)” value worked out at 7 fold.

GDASMCYDGLALRWDQCWPHDP [531-E11 peptide-displaying phage (SEQ ID NO: 404)]: the “% of binding in the absence of HGF” value in experiment [1] came to 33%; in experiment [4], 61%. For the same molecule, the “WC ELISA (fold over background)” value in experiment [2] was found to be 1.3 fold. In addition, the “Protein ELISA (fold over background)” value in experiment [3] came to 3.4 fold.

With AQFPLEFDVPNFSYHWLVSFNP [118-C07 peptide-displaying phage (SEQ ID NO: 460)], the “% of binding in the absence of HGF” value in experiment [1] turned out to be 84%; in experiment [4], 100%. In experiment [2], the “WC ELISA (fold over background)” value turned out to be 1.27 fold. Moreover, the “Protein ELISA (fold over background)” value in experiment [3] was 5.6 fold.

On to AQRPEAHYKLAMSYPIIPRTKT [96-H12 peptide-displaying phage (SEQ ID NO: 452)], for which the “% of binding in the absence of HGF” value in experiment [1] came out at 64%; in experiment [4], 88%. Besides, the “WC ELISA (fold over background)” value in experiment [2] was found to be 1.37 fold. Further, the “Protein ELISA (fold over background)” value in experiment [3] was determined as 35.3 fold.

For AQNAVVPPPMLWSIYWDYGREG [94-H04 peptide-displaying phage (SEQ ID NO: 457)], the “% of binding in the absence of HGF” value was 101% in experiment [1] and 150% in experiment [4]. For the same molecule, the “WC ELISA (fold over background)” value in experiment [2] came out at 1.37 fold. For the same molecule, in experiment [3], the “Protein ELISA (fold over background)” value worked out at 7 fold.

Take AQHQYGQMMVLHIQYDMGEFIP [117-F08 peptide-displaying phage (SEQ ID NO: 462)]: the results for the “% of binding in the absence of HGF” value in experiment [1] and in experiment [4] were 270% and 102%, respectively. In addition, the “WC ELISA (fold over background)” value in experiment [2] came out at 1.27 fold. The “Protein ELISA (fold over background)” value in experiment [3] was determined as 4.5 fold.

For AGLYLCDLSIMYCFFQGT [489-A04 peptide-displaying phage (SEQ ID NO: 015)], the “% of binding in the absence of HGF” value in experiment [1] is 13%; in experiment [4], 30%. The “WC ELISA (fold over background)” value in experiment [2] was 1.33 fold. For the same molecule, the “Protein ELISA (fold over background)” value in experiment [3] turned out to be 4.3 fold.

For AQREVEEPYWYLDFLSSWRMHE [524-E09 peptide-displaying phage (SEQ ID NO: 451)], the results for the “% of binding in the absence of HGF” value in experiment [1] and in experiment [4] were 93% and 100%, respectively. For the same molecule, in experiment [2], the “WC ELISA (fold over background)” value worked out at 1.33 fold. In addition, the “Protein ELISA (fold over background)” value in experiment [3] is 8.2 fold.

As to GDHRKCEISAKTHEVTCYDNDP [545-F04 peptide-displaying phage (SEQ ID NO: 402)], the “% of binding in the absence of HGF” value in experiment [1] came to 114%; in experiment [4], 143%. The “WC ELISA (fold over background)” value in experiment [2] is 1.17 fold. Also, in experiment [3], the “Protein ELISA (fold over background)” value is 5.2 fold.

Consider AQQASRFTFTDGDSYWWFEDF [525-A07 peptide-displaying phage (SEQ ID NO: 449)], for which the “% of binding in the absence of HGF” value in experiment [1] was found to be 88%; in experiment [4], 93%. Moreover, the “WC ELISA (fold over background)” value in experiment [2] was 1.17 fold. The “Protein ELISA (fold over background)” value in experiment [3] was found to be 7 fold.

Take AQVPDWLSAVVIEKLIEYGMMV [93-C08 peptide-displaying phage (SEQ ID NO: 464)]: the “% of binding in the absence of HGF” value was found to be 96% in experiment [1] and 101% in experiment [4]. Besides, in experiment [2], the “WC ELISA (fold over background)” value was 1.37 fold. In experiment [3], the “Protein ELISA (fold over background)” value is 4.4 fold.

With AGWWSCQWELNVCIWQGT [484-D08 peptide-displaying phage (SEQ ID NO: 016)], the “% of binding in the absence of HGF” value was determined as 90% in experiment [1] and 105% in experiment [4]. For the same molecule, the “WC ELISA (fold over background)” value in experiment [2] is 1.33 fold. Besides, the “Protein ELISA (fold over background)” value in experiment [3] is 4.1 fold.

On to AQPYYELQDADMLLVVALLSTG [94-F07 peptide-displaying phage (SEQ ID NO: 458)], for which the results for the “% of binding in the absence of HGF” value in experiment [1] and in experiment [4] were 104% and 106%, respectively. In experiment [2], the “WC ELISA (fold over background)” value amounted to 1.2 fold. For the same molecule, the “Protein ELISA (fold over background)” value in experiment [3] was found to be 6.1 fold.

Consider AQRWSSPGMSQSFVLEWKWNDN [118-A08 peptide-displaying phage (SEQ ID NO: 453)], for which the results for the “% of binding in the absence of HGF” value in experiment [1] and in experiment [4] were 74% and 85%, respectively. The “WC ELISA (fold over background)” value in experiment [2] is 1.3 fold. Besides, the “Protein ELISA (fold over background)” value in experiment [3] came out at 11.3 fold.

AQSPYIFPIDDSGRQIFVIQWG [76-D09 peptide-displaying phage (SEQ ID NO: 463)]: the “% of binding in the absence of HGF” value in experiment [1] is 87%; in experiment [4] it was 79%. Also, the “WC ELISA (fold over background)” value in experiment [2] was 1.23 fold. The “Protein ELISA (fold over background)” value in experiment [3] worked out at 4.4 fold.

As for AQDLKPWTAGWEPPWLWTDRGP [104-C09 peptide-displaying phage (SEQ ID NO: 461)], the entries for the “% of binding in the absence of HGF” value in experiment [1] and in experiment [4] were 50% and 64%, respectively. Besides, the “WC ELISA (fold over background)” value in experiment [2] was 1.3 fold. For the same molecule, the “Protein ELISA (fold over background)” value in experiment [3] amounted to 5 fold.

Turning to AQVGTAEAIMFSDVEDTGVHKF [103-G08 peptide-displaying phage (SEQ ID NO: 459)], the “% of binding in the absence of HGF” value in experiment [1] was 95%; in experiment [4], 140%. For the same molecule, the “WC ELISA (fold over background)” value in experiment [2] came out at 1.33 fold. In experiment [3], the “Protein ELISA (fold over background)” value worked out at 5.7 fold.

Consider AQIQGIQKTEQGEFYWFNWFPA [528-F05 peptide-displaying phage (SEQ ID NO: 450)], for which the results for the “% of binding in the absence of HGF” value in experiment [1] and in experiment [4] were 81% and 84%, respectively. For the same molecule, the “WC ELISA (fold over background)” value in experiment [2] was 1.1 fold. In experiment [3], the “Protein ELISA (fold over background)” value came to 4.3 fold.

On to AQYDTWVFQFIHEVPGELVAMQ (also called linear isolate 94-E08) [94-E08 peptide-displaying phage (SEQ ID NO: 454)], for which the “% of binding in the absence of HGF” value in experiment [1] came out at 74%; in experiment [4], 102%. For the same molecule, the “WC ELISA (fold over background)” value in experiment [2] was found to be 1.23 fold. For the same molecule, the “Protein ELISA (fold over background)” value in experiment [3] stood at 8.9 fold.

With GSYYDCREFQCNKPAP [465-A06 peptide-displaying phage (SEQ ID NO: 002)], the “% of binding in the absence of HGF” value in experiment [1] was determined as 32%; in experiment [4], 56%. Besides, in experiment [2], the “WC ELISA (fold over background)” value turned out to be 1.33 fold. The “Protein ELISA (fold over background)” value in experiment [3] was 4.4 fold.

For the molecule GDHLTCEFRDDGWKEHCWWSDP [552-F06 peptide-displaying phage (SEQ ID NO: 403)], the “% of binding in the absence of HGF” value in experiment [1] worked out at 32%; in experiment [4], 82%. Also, the “WC ELISA (fold over background)” value in experiment [2] came to 1.23 fold. The “Protein ELISA (fold over background)” value in experiment [3] came out at 11.1 fold.
